Measurements reported in IntAct's records for PubMed 22643122.

B1: Mitogen-activated protein kinase 4 (Arabidopsis thaliana (Mouse-ear cress)), Q39024 (parent)
chain: MSAESCFGSSGDQSSSKGVATHGGSYVQYNVYGNLFEVSRKYVPPLRPIGRGAYGIVCAATNSETGEEVAIKKIGNAFDNIIDAKRTLREIKLLKHMDHENVIAVKDIIKPPQRENFNDVYIVYELMDTDLHQIIRSNQPLTDDHCRFFLYQLLRGLKYVHSANVLHRDLKPSNLLLNANCDLKLGDFGLARTKSETDFMTEYVVTRWYRAPELLLNCSEYTAAIDIWSVGCILGETMTREPLFPGKDYVHQLRLITELIGSPDDSSLGFLRSDNARRYVRQLPQYPRQNFAARFPNMSAGAVDLLEKMLVFDPSRRITVDEALCHPYLAPLHDINEEPVCVRPFNFDFEQPTLTEENIKELIYRETVKFNPQDSV
partner: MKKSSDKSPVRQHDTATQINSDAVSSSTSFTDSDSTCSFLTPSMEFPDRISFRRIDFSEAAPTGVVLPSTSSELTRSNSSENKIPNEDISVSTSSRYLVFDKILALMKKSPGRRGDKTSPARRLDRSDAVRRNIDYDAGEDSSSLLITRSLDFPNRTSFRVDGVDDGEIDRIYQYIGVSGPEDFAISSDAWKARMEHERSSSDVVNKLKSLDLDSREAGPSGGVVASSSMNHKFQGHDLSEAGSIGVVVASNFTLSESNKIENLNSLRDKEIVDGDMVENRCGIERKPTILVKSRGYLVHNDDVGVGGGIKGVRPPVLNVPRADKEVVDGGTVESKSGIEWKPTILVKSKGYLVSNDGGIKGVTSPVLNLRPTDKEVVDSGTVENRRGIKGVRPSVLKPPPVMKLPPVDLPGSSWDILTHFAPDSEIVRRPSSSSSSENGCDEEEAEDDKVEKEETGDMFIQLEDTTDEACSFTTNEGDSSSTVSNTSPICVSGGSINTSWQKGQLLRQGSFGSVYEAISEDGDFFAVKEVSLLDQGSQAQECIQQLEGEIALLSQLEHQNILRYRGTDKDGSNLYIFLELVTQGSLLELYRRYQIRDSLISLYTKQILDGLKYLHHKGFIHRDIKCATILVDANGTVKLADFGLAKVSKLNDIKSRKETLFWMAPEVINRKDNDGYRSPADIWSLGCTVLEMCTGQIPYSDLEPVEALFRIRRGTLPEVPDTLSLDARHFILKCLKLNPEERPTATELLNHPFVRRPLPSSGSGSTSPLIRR

Variants of: B1
Conditions: with mp3k2_arath MEKK2, O81472

Q: Which “effect of a mutation on the interaction” value does the source give for MSAESCFGSSGDQSSSKGVATHGGSYVQYNVYGNLFEVSRKYVPPLRPIGRGAYGIVCAATNSETGEEVAIKKIGNAFDNIIDAKRTLREIKLLKHMDHENVIAVKDIIKPPQRENFNDVYIVYELMDTDLHQIIRSNQPLTDDHCRFFLYQLLRGLKYVHSANVLHRDLKPSNLLLNANCDLKLEDFGLARTKSETDFMTEYVVTRWYRAPELLLNCSEYTAAIDIWSVGCILGETMTREPLFPGKDYVHQLRLITELIGSPDDSSLGFLRSDNARRYVRQLPQYPRQNFAARFPNMSAGAVDLLEKMLVFDPSRRITVDEALCHPYLAPLHDINEEPVCVRPFNFDFEQPTLTEENIKELIYRETVKFNPQDSV [G186E] here?
A: disrupting interaction
